Laboratory results: a protein production outcome set (Wang et al. 2014)

assay: label from the status in PepcDB records
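Note: failed if final PepcDB status was selected cloned or expressed and not failed if soluble or beyond.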

Q: For “MTPSLSGLPPIRTALIGYGFAGKTFHAPLIRAVPALCLEHVVSRDPGRVHADLPEARVSADPDEAIEAADIDLVVIASPNATHASLAERALRAGKHVVVDKPFTVTLAEARRLADLARERPGQVLSVFQNRRFDSDFLAVEAALQAGSIGPVRYFESAIERFRPQVRDRWREHDLPGSGLWFDLGPHLLDQALCLFGVPQRVHGHLRRLREGALTDDWFEVLLDYPHCQVALRASMLAANPAPRFNVHGDHGSLLKAGADIQEAQLLQGLHPGSAGWGRDPDLLQHIDGQGLRQSLVTPAGDQSRYYQALAAAIRGQSRNPVSAQQACALMALLELARRSAEEGRSLPVELRDEERQAWN”, which protein production is on record?
A: Its protein production is “failed”.

Q: With “MTPTPSFAAYVGAHWAAVVIYVIATVVNVYGLLFRSEPAERWSYRLISVGWMIHSVVIAYWWWVTGHGPYLSRNEVLSSDAWIALTVFMCFQRLYPRVRPASIVVFPSVFLMIALGLFFDVQIRTLPPTFSGIWLVIHIAFYKIALGTILIALACSIFLVLKKRTPFAWLQRLPDLESLDLHAYRFAGFGFIIWAIAMLAGSIWAYKSWGRFWGWDPVENWSLITWILFGIHLHLRRFFRWSGERAALFYVVCFIFSLVALFYTSHMDTSIHMEYFR” as the sequence, how does the protein production read?
A: Its protein production is “failed”.

Q: Which protein production does the source give for “MTPYRRILLIMTEAQANAALSRAMALSAASGASLHVLGIHESGVLRLPHELQEAPLHSASFMHFSTELKALLDEQSFVGARPGFEAVETSNPRDQLPACIARYAPDLVIKGCPGHSLLEQIARTSLDQALLH” here?
A: Its protein production is “failed”.

Q: For “MTQDEWIDIPQGWSQGRTIYGGLVAGLLMHKALSVMNDESKNLLSTSITFVGPVNEGRVRLTVEILRQGKSVTTIEARLWQDQAVQTILIASFGQPRSLEHHHHHH”, which protein production is on record?
A: The protein production was “not failed”.

Q: With “MTQELQTLEVEEEMMMRKFYELMSRQRLNKKMIMLVLIEIDVGSFEENGEDSKCVTWTERHKPLKGNNAAGVLPLQRLVRDGLLAYGPEVF” as the sequence, how does the protein production read?
A: Its protein production is “failed”.

Q: For “MTQKEWPLWEVFVRSKQGLEHKHCGSLHATDAQQALHMARDVYTRRQEGVSIWVVPSTAITASAPEEKPELFDPMADKIYRHPTFYQLPDEVNHM”, which protein production is on record?
A: The protein production was “not failed”.

Q: Which protein production does the source give for “MTQKRKLDAASPGDPHDFAADGIERQTLRMVEQALRADRLMLAWQPVVVASEAARTVFHEGLIRVLDETGRIIPARDFMSAVETQDLGRLIDCASLEKGLATLARHPGLRLSINMSARSIGHGRWMQILQGALRADPNLGPRLILEITESSAMEVPELVLPFMDALQRAGISFALDDFGAGFTAFRYLKDFFFDIIKIDGQFIRNIHRDPDNQVLTQAMLSVGRHFDMLTVAETVETAEEAEWLRAAGVDCLQGYLFGRPCTQPAWQATGTRLIA” here?
A: Its protein production is “failed”.

Q: With “MTQPSGLKNLLRAAAGALPVVPRTDQLPNRTVTVEELPIDPANVAAYAAVTGLRYGNQVPLTYPFALTFPSVMSLVTGFDFPFAAMGAIHTENHITQYRPIAVTDAVGVRVRAENLREHRRGLLVDLVTNVSVGNDVAWHQVTTFLHQQRTSLSGEPKPPPQKKPKLPPPAAVLRITPAKIRRYAAVGGDHNPIHTNPIAAKLFGFPTVIAHGMFTAAAVLANIEARFPDAVRYSVRFAKPVLLPATAGLYVAEGDGGWDLTLRNMAKGYPHLTATVRGL” as the sequence, how does the protein production read?
A: The protein production was “failed”.

Q: Which protein production does the source give for “MTQQHPHLLEPELGEFLTALKNTPSRLTARTAAWLCIWTASRPGMVRLAEWKEFDLDKATWTTPAAKMKMRRDFVCPLPHQAIAALKELHCLTGRSRWLFPGVGAKNPTISENTINKVFATIGYKGRLVGHGTRHTASTLLREHGWPKEHVEAQLAHKEEGLEHHHHHH” here?
A: The protein production was “failed”.

Q: For “MTQQLFTLFAVFISLFLFGMAVMRAGLLTMNAEKARVGILRFVDNPLKGFFVGLLLTILLQSSSAVMIVTIGFVAAGYVTFRQSIGIILGTNVGTCFTVELIALDLHSLIVPLLLIGLIGLAIPHLITYCLGCVSFGLACIFISMNGLENLASPLAAIPAIQAFIELTNDWLIVGAGVGTLLTALIQSSTATTAIAMGFLNEEIIGIHGGIAIMLGANIGTCFTALLASIGSGRTSRLVAFAHLWLNVIGVLLFIPLIPHLSHFVMTLTTIPAIQLAHASTIFNVICSLAILPFVKPFASFIETLHGPSQ”, which protein production is on record?
A: The protein production was “failed”.

Q: For “MTQQPRSTARTPASAEDPAAAAAHPPLAAPRPPAEHRVWPRTFHDRLTAPLPGLKAFARFAREGAVRPGPAGLADVPRLPCAPGPLPRVDARTVAVTWAGHASWVVRIGGLTVLTDPVWSRRILGTPPRVTPVGVPWSALPRVDAVVISHNHYDHLDAPTLRRLPRDTPVLVPAGLGRWFHRRRFTHVTELDWWEATELNGVRFDFVPAHHWSKRSLTDTCRTLWGGWVLTDPDGRRVYFAGDTGYGHWFTRIGRRYPGIDLALLPIGAYDPRWWLSDVHCDPEEAVRAAQDVGARRMAPMHWGTFVLSAEPVLEPLARVRAAWQQAGLPRERLWDLPIGASRVLE”, which protein production is on record?
A: Its protein production is “failed”.

Q: Which protein production does the source give for “MTQQTFLVEIGTEELPPKALRSLAESFAANFTAELNNANLPYGEVIWYAAPRRLALKVTNLSATQADREVEKRGPAIAQAFDAEGKPSKAAEGWARGCGITVDQAERLVTDKGEWLLYRAHVKGQSAQLLLAGMVNTALSKLPIPKLMRWGDKDTQFVRPVHTVTMLLGSEVIPGTVLGIDSDRIIRGHRFMGEPEFTLDNADQYPQVLQERGKVIADYELRKAIIKRDAELAAQKIGGVADLSESLLEEVASLVEWPVVLTAKFEEKFLAVPAEALVYTMKGDQKYFPVYDTAGNLLPNFIFVANIESKDPQQIISGNEKVVRPRLADAEFFFKTDRKKRLEDNLPRLETVLFQQQLGTLRDKTDRIQALAGWVAAQIGADVNHATRAGLLSKCDLMTNMVFEFTDTQGVMGMHYARHDGEAEDVAVALNEQYQPRFAGDDLPSNPVACALAIADKMDTLAGIFGIGQHPKGDKDPFALRRAALGVLRIIVEKNLPLDLQTLTEEAVRLYGSKLTNTKVVDEVIEFMLGRFRAWYQDEGHSVDTIQAVLARRPTRPADFDARVKAVTYFRTLDAAAALAAANKRVSNILAKSTDKLNDHVRASVLKEPAELKLATHLVVLRDKLEPVFAAGQYQEALVELAALRETVDEFFESVMVMDEDDAVRVNRLTLLSKLRELFLQVADISLLQ” here?
A: The protein production was “not failed”.

Q: Which protein production does the source give for “MTQRAGIHPSARRPSAFDPPIGCARPAMTDTLSLRPIVGRRRLWELDPHFHCSIVGTCLTMSDLRKLATKTRLSVPADAPDYRLHGVFVRAAGAAGPAEKGIAKLMDKDLERRHTRALAQFRKAADNDALEALWDGAREAGDIPGPYWALMCHPLASRTLLERAFGEVHMLSHLMGAANRADVRRLAEMERETEAVEDRLAEAEARRLREIEIKQGEIGQLRAAIEAERARTRALVRRLEEAGEGGCRDLRIQTLEATMEGLRERLNREAWRADRLQGKLAEAERLLTEVRADRDDLRRRLAEQAEDLRTLEDLALDDDGEAGDRPPLDLGGRTILYVGGRPRTVPSLRKLVEDSNGRFAHHDAGREDGRAHLGEVLSGADIVICPVDCISHDACLKAKRACLKRGTPFVPLSSAGLGAFARCLRETAPLFAPANDGAALAAELEHHHHHH” here?
A: The protein production was “failed”.

Q: Which protein production does the source give for “MTQRKVYAPVPVMVAGIAIIATRFLGILLLVWELGLSDLSGWIGSNAEAWDSTLVLLLSLIIVGVEIRCGFAVLAGVNWGRWGYIACQGVVVCYLLLASLSEFMPAIFHISGENHAAVLHQLLMQKIPDLLVIVLLFLPRRSKRFFLRQK” here?
A: Its protein production is “failed”.

Q: Which protein production does the source give for “MTQRPRQDERAKDVWFEYVLTAGRFSAWPIRWQGWLATALLIVGPITGMMAIAKLAPGVPPFVLVLGAMTVCFGTVFPLAYFKGRPAKSRG” here?
A: The protein production was “failed”.

Q: For “MTQTDRPCLAALVILILLQLIMLFSLFAGVPPHPPIATPLFGIGPFIGASVSAAIAAIVLGESRAARVLALLAVLGALVSFGPQKYLDPQFPLIWPAVIAAQLAAITVLVRLLPALSRQDA”, which protein production is on record?
A: The protein production was “failed”.

Q: Which protein production does the source give for “MTQTVDIENTDNVLSRRDSNAETQQMLRQRFETQPDLMPAQLASELGIAELEVVTALPQAQRVFLPLAHMDELLQSLPEWGSLTTIVMLSGSVFEFKGDFPQGKFAHGYYNLYSKGDGLHGHLKLDGMRAIALISRPFRGSESHSINFFGPQGEVVFKVYLGRDKQRVLFPDQVRRFKALAATFAD” here?
A: Its protein production is “failed”.

Q: With “MTRFNRFRRTLMQWTGSLPLLGALPLSKLAQAQGAEQPAASGTPPAGGTRAPRFAYVGTYTFDAPGGTAGGPPARGIYVLAPRGDAWSQAQVVESANPSFLAVHPNQRCLYAINEIDVYEGRATGTAEAYAIDPRDGRLTLLNRQPLSLSGTIPAHVAVSPDGQHLAVALYGGGAYNVLPIGADGRLGSVSGLFKDTGSGPDTARQEAPHAHMVLFDPTGRHILGTDLGTDRINVFALEDGKLTPRDRAQLKPGGGPRHLALHPSGKLLYVISELDSTVACHGYDPATGRVLDERQRIATTPADYTGQKSGAALVMHPSGRFLYASNRRLKSEHPLADSIAAFSIDPASGRLAALQYWSEGLRFPRALTMADDGRHLYALSQKGDTILRLRIDDATGRLDQPAVVSNVPTPVCLVFAG” as the sequence, how does the protein production read?
A: Its protein production is “failed”.

Q: Which protein production does the source give for “MTRIASHRGGTLEFGDSTPHGFTATAAMALEEVEFDLHPTADGAIVVHHDPTLDATTDMTGAIVDMTLAKVKTATIRYGAGSHPMTLEELCALYVDSHVNFRCEIKPGVDGLPYEGFVALVIAGLERHSMLERTTFSSFLLASMDELWKATTRPRLWLVSPSVLQQLGPGAVIETAIAHSIHEIGVHIDTADAGLMAQVQAAGLDFGCWAAHTPSQITKALDLGVKVFTTDRPTLAIALRTEHRMEASV” here?
A: Its protein production is “not failed”.

Q: With “MTRIIPFALAVAALATAGAAQASTMVIGGGAAKECSDSALKGRSDKRSVLACTSALELENLNFRDRARTYVNRGVLQMRQKDFGAARSDFDAAGAIDPNLGEVFVNRGAAYVGEERYREGVEQIDKGLALGVKEPEKAWFNRGLANEGLGDLKAAFRDYSRAAELNPDWPAPKLELTRFSVKRP” as the sequence, how does the protein production read?
A: Its protein production is “failed”.

Q: For “MTRNDSGDLISRNDSTNHMNTTQPQKMLPEATFSDRMLEIGIKYKKQLTALVVVICLAAGGTLFWMQKTKVDEVQASLALAKITPWIEMGDVNKAVNGEGSIKGLNSIIKTWGGTPSGKTARLYMAYILLNSGKPDDALSIYKGFSSDNKDLQASALAGAAACHVQKKAFAEAAPEYEKASETAENETLKSMYLTKAAESYSAAGQADKAAKLYDQVIKTWPATSSAGMAQRALLRLAGAGVQIPQI”, which protein production is on record?
A: Its protein production is “failed”.

Q: Which protein production does the source give for “MTRPERAPLSASARIEVPFHDVDAMAVCWHGHYLKYFEIGRAALLRAFDYDYPEMRASGYLWPVVEAHLKYIRPATYGQRIEVRATLIEYENRLKIGYEIADCASGQRLTKGHTIQVAVCAATSELQFVSPAVVFEKVERAWADLEHHHHHH” here?
A: The protein production was “failed”.

Q: For “MTRPQAAAEDARNAMVAGLLASGISVNGLQPSHNPQVAAQMFTTATRLDPKMCDAWLARLLAGDQSIEVLAGAWAAVRTFGWETRRLGVTDLQFRPEVSDGLFLRLAITSVDSLACAYAAVLAEAKRYQEAAELLDATDPRHPFDAELVSYVRGVLYFRTKRWPDVLAQFPEATQWRHPELKAAGAAMATTALASLGVFEEAFRRAQEAIEGDRVPGAANIALYTQGMCLRHVGREEEAVELLRRVYSRDAKFTPAREALDNPNFRLILTDPETIEARTDPWDPDSAPTRAQTEAARHAEMAAKYLAEGDAELNAMLGMEQAKKEIKLIKSTTKVNLARAKMGLPVPVTSRHTLLLGPPGTGKTSVARAFTKQLCGLTVLRKPLVVETSRTKLLGRYMADAEKNTEEMLEGALGGAVFFDEMHTLHEKGYSQGDPYGNAIINTLLLYMENHRDELVVFGAGYAKAMEKMLEVNQGLRRRFSTVIEFFSYTPQELIALTQLMGRENEDVITEEESQVLLPSYTKFYMEQSYSEDGDLIRGIDLLGNAGFVRNVVEKARDHRSFRLDDEDLDAVLASDLTEFSEDQLRRFKELTREDLAEGLRAAVAEKKTK”, which protein production is on record?
A: Its protein production is “failed”.

Q: Which protein production does the source give for “MTRPTHPNALIWLLLSIAIIALDQATKAWVLTSLPEYIPVPVIHGFWNWYRSYNTGAAFSFLSDAGGWQMWLFIALALGISGLLTFWLSRTPRREWRSALPYALIIGGGIGNVIDRFLHGHVVDFIQWYVGSYYWPSFNLADSAIVAGAIGIGLLSLFDSKHSPKTP” here?
A: The protein production was “failed”.
